{"source": "patent US20110207628A1", "binders": {"B1": {"name": "Regulated endocrine-specific protein 18 (Resp18) 68V-134K, phage clone (protein, mouse, UniProt P47939 68-134, looked up)", "chain": "VPEGMFWADDIAYELMTKKVEHLSRLHPQYPCRKDMKAVSPTANAGVRSKQEEKLQLLSPQKSPTVK"}}, "key": {"[1]": {"target": "FLAG-tubby-F (full-length mouse tubby with N-terminal FLAG tag) (mouse) (UniProt P50586)", "sequence (P50586 other isoform, or with tags, fused parts or gaps)": "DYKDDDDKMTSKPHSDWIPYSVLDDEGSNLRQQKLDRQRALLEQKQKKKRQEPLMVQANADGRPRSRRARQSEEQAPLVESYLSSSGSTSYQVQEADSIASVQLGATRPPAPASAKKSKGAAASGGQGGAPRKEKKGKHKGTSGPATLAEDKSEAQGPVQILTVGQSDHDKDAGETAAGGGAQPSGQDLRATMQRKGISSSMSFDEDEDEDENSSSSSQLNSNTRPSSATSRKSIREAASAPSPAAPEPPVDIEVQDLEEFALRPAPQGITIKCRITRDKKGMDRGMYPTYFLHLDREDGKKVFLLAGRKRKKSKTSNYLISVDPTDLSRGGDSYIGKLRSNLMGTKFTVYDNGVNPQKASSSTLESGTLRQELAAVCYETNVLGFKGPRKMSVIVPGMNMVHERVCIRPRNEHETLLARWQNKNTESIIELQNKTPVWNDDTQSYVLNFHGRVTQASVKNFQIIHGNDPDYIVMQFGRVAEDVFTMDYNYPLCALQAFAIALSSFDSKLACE", "assay": "clonal phage on immobilized FLAG-tubby-F, plaque assay"}, "[2]": {"target": "tubby-N (N-terminus of mouse tubby, 1M-242P), GST-free (mouse) (UniProt P50586)", "sequence (P50586 1-242)": "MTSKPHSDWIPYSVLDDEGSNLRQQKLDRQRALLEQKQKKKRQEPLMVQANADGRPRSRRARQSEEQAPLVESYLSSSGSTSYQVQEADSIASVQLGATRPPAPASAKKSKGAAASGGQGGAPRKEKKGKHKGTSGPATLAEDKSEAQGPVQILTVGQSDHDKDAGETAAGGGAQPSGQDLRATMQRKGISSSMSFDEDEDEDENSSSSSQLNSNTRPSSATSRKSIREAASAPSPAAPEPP", "assay": "clonal phage on immobilized tubby-N, plaque assay"}}, "data": [{"binder": "B1", "values": [{"measurement": "Binding to tubby-F (binding specificity to FLAG-tubby-F vs. to GFP-FLAG)", "setting": "[1]", "result": "4.8 X (fold)"}, {"measurement": "Binding to tubby-N (binding specificity of clonal phage vs. control phage)", "setting": "[2]", "result": "10.3 X (fold)"}]}]}
